# Measured values taken from patent publication US20190359687A1.
# How the values were obtained:
# [1] = molecular target: endogenous Cynomolgus monkey FVIII in whole blood (Cynomolgus monkey); test: cell-based or functional assay
# [2] = molecular target: Cynomolgus monkey glycophorin A on Cynomolgus monkey red blood cells (Cynomolgus monkey); test: FACS, RBC Cy02
# [3] = molecular target: Rhesus monkey glycophorin A on Rhesus monkey red blood cells (Rhesus monkey); test: FACS, RBC Rh02
# [4] = molecular target: Rhesus monkey glycophorin A on Rhesus monkey red blood cells (Rhesus monkey); test: FACS, RBC Rh01
# [5] = molecular target: Cynomolgus monkey glycophorin A on Cynomolgus monkey red blood cells (Cynomolgus monkey); test: FACS, RBC Cy01
# [6] = molecular target: Rhesus monkey glycophorin A on Rhesus monkey red blood cells (Rhesus monkey); test: FACS, RBC Rh03
# Rhesus monkey glycophorin A on Rhesus monkey red blood cells (Rhesus monkey), sequence (chain, as listed by the source, form in doubt): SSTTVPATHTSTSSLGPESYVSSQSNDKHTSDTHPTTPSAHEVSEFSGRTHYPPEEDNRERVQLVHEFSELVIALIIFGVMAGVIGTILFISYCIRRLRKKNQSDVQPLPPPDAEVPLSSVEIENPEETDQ
# endogenous Cynomolgus monkey FVIII in whole blood (Cynomolgus monkey), sequence (chain, as listed by the source): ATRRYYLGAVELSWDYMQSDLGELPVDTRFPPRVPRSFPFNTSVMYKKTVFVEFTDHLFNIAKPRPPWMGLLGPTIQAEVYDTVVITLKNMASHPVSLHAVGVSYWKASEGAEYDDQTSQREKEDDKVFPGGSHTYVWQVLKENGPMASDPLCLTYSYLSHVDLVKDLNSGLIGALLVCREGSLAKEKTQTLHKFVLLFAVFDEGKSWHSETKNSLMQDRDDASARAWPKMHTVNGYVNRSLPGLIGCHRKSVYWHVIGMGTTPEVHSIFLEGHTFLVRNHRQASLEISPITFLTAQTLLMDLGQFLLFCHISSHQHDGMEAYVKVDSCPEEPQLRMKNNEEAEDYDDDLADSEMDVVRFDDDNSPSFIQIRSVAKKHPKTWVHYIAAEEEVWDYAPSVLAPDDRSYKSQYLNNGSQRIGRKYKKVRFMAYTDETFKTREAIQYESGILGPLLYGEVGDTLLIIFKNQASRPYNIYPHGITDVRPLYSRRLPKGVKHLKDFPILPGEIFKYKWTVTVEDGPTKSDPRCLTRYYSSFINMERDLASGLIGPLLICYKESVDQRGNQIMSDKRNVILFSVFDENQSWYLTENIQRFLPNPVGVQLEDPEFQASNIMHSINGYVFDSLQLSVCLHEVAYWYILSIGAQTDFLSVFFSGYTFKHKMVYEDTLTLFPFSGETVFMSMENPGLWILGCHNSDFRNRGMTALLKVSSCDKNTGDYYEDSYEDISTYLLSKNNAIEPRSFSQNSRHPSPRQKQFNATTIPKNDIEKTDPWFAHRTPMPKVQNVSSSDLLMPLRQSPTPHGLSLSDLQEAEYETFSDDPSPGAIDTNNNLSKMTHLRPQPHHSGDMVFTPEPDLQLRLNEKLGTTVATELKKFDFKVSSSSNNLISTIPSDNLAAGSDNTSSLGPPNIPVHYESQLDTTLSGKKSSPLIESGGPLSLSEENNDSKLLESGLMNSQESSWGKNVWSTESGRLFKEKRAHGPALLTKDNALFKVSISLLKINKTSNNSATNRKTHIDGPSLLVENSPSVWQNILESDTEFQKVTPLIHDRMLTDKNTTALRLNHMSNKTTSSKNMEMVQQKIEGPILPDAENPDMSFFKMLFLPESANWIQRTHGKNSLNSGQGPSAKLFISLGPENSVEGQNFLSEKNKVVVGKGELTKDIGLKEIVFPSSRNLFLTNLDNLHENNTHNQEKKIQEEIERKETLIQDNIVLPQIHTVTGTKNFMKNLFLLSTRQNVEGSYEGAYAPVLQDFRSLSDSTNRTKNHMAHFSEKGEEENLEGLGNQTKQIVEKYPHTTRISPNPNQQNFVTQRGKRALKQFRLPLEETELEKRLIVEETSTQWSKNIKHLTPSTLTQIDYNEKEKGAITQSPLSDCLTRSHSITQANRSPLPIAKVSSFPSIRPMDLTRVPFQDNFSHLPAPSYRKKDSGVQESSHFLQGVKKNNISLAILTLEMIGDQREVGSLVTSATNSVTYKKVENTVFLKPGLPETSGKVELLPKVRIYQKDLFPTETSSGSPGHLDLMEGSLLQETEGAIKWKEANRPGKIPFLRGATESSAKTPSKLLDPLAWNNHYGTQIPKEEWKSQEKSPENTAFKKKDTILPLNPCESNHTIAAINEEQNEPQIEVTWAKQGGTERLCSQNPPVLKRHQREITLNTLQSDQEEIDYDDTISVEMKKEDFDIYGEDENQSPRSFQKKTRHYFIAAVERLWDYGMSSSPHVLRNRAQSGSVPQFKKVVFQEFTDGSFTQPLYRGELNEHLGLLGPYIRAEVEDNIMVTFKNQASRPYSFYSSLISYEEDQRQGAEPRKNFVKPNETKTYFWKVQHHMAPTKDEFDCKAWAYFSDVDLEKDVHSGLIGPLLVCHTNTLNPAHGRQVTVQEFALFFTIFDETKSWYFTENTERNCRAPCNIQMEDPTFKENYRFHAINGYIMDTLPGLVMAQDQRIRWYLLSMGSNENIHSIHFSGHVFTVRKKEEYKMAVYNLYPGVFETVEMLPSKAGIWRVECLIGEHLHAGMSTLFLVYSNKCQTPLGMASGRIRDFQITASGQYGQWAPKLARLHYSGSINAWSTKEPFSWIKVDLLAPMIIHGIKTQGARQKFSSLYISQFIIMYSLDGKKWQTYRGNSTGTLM
"Hemochron aPTT clotting time, Cyno whole blood [1] [s]",fluorescence intensity [2],fluorescence intensity [3],fluorescence intensity [4],fluorescence intensity [5],fluorescence intensity [6],Substance
180,,,,,,anti-FVIII neutralizing monoclonal antibody BO2C11
,3,2,2,2,2,Hu igG isotype (antibody)
